The target of the test is T1, σ^C4 domain of M. tuberculosis σ^C (M. tuberculosis).
T1 chain: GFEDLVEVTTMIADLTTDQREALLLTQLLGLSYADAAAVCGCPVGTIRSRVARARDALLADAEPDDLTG
In words: SPR. In general terms: Surface plasmon resonance follows binding to a sensor surface in real time, without labels.

The source of these data is publication PMC1890005 (The Journal of biological chemistry, 2006).

B1: σ^C2 domain of M. tuberculosis σ^C (domain or fragment)
chain: MTATASDDEAVTALALSAAKGNGRALEAFIKATQQDVWRFVAYLSDVGSADDLTQETFLRAIGAIPRFSARSSARTWLLAIARHVVADHIRHVRSRPRTTRGARPEHLIDGD
The molecule B1 had a Kd of 1810 ± 30 nM.

Usually Kd stands for the equilibrium constant for the complex coming apart. High values mean weaker binding, low ones tighter binding.
